Experimental data from article PMC5062967 (Nucleic Acids Research, 2016).

Target: T1, human 5MP2 (ITC sample) (human, UniProt Q7L1Q6 1-419)
T1 sequence: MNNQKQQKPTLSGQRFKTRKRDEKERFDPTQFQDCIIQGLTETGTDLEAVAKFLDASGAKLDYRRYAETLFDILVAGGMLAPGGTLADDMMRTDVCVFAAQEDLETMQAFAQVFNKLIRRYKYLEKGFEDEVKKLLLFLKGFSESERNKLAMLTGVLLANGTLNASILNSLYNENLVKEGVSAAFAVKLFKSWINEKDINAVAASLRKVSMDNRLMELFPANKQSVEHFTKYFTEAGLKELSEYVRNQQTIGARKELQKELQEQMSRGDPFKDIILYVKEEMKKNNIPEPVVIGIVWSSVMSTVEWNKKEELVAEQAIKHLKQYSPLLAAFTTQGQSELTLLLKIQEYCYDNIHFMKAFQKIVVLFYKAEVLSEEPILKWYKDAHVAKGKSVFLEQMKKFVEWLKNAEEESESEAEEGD
Test: ITC

Kd: 1500 nM
B1: Human eIF2β_(53-136) carrying two K-boxes (domain or fragment)
chain: DLEADEEDTRKKDASDDLDDLNFFNQKKKKKKTKKIFDIDEAEEGVKDLKIESDVQEPTEPEDDLDIMLGNKKKKKKNVKFPDE
